From US20220195023A1 come the findings set out here.

In experiment [1] the target is (NANP)6 (Plasmodium falciparum). Put plainly: SPR, antibody on chip. (In general: Surface plasmon resonance follows binding to a sensor surface in real time, without labels.)
Experiment [2] deals with (NPNA)3 (Plasmodium falciparum). The experiment in a line: SPR, antibody on chip.
Experiment [3] deals with … (Plasmodium falciparum). The experiment in a line: BLI, target on sensor. (In BLI a coated tip is dipped into the sample, and binding shifts an interference pattern.)
The target in experiment [4] is (NANP)6 (Plasmodium falciparum). Put plainly: BLI, target on sensor.
For experiment [5], the target named is (NVDP)3(NANP)2 (Plasmodium falciparum). Put plainly: BLI, target on sensor.
Experiment [6] deals with (NPNA)3 (Plasmodium falciparum). The experiment in a line: BLI, target on sensor.
In experiment [7] the target is NANPNVDP (Plasmodium falciparum). The experiment in a line: BLI, target on sensor.

B1: AB-007060 (antibody, V domains shown)
VH: QMQLVESGGGVVQPGRSLRLSCTASGFTFSTYAMHWVRQSPGQGLQWVAVISYHSTNKYYEDSVRGRFTISRDNSKNTLYLQMNSLRAEDTAVYYCARDGYSSSYFDFWGQGTLVTVSS
VL: DIQMTQSPSTLSASVGDRVAITCRASQSISRWLAWYQQQPGKAPKLLMSGASVLESGVPSRFSGSGSGTEFTLTISSLQPDDFATYYCQHYNSYFVTFGQGTKVEIK
What is called Kd is the free concentration of one partner at which half of the binding sites on the other are occupied at equilibrium, for simple one-to-one binding. Read a high Kd as a looser complex. For B1, the Kd in experiment [1] is 1.21 nM; in experiment [2] it was 212 nM; in experiment [3], 43.2 nM; in experiment [4] it was 0.898 nM; in experiment [5], 45.2 nM; in experiment [6] it was 1.14 nM.

B2: AB-007053 (antibody, V domains shown)
VH: QMQLVESGGGVVQPGRSLRLSCTASGFTFSTYAMHWVRQSPGQGLQWVAVISYHSTQKYYEDSVRGRFTISRDNSKNTLYLQMNSLRAEDTAVYYCARDGYSSSFFDFWGQGTLVTVSS
VL: DIQMTQSPSTLSASVGDRVAITCRASQSISRWLAWYQQQPGKAPKLLMSGASVLESGVPSRFSGSGSGTEFTLTISSLQPDDFATYYCQHYNSYFVTFGQGTKVEIK
For the molecule B2, the Kd worked out at 1.42 nM in experiment [1]; 112 nM in experiment [2]; 24.7 nM in experiment [7]; 23.5 nM in experiment [3]; 1.37 nM in experiment [4]; 25.8 nM in experiment [5]. In experiment [6], this molecule came in with a Kd of 0.552 nM.

B3: AB-007067 (antibody, V domains shown)
VH: QMQLVESGGGVVQPGRSLRLSCTASGFTFSTYAMHWVRQSPGQGLQWVAVISYHSTNKYYEDSVRGRFTISRDNSKNTLYLQMNSLRAEDTAVYYCARDGYSSSFFDFWGQGTLVTVSS
VL: DIQMTQSPSTLSASVGDRVAITCRASQSISRWLAWYQQQPGKAPKLLMSSASVLESGVPSRFSGSGSGTEFTLTISSLQPDDFATYYCQHYNSYFVTFGQGTKVEIK
As for B3, the Kd in experiment [1] came to 0.244 nM; in experiment [2] it was 207 nM; in experiment [3], 36.1 nM; in experiment [4], 0.647 nM; in experiment [5], 34 nM; in experiment [6] it was 2.02 nM.

B4: AB-007050 (antibody, V domains shown)
VH: QMQLVESGGGVVQPGRSLRLSCTASGFTFSTYAMHWVRQSPGQGLQWVAVISQHSTNKYYEDSVRGRFTISRDNSKNTLYLQMNSLRAEDTAVYYCARDGYSSSFFDFWGQGTLVTVSS
VL: DIQMTQSPSTLSASVGDRVAITCRASQSISRWLAWYQQQPGKAPKLLMSGASVLESGVPSRFSGSGSGTEFTLTISSLQPDDFATYYCQHYNSYFVTFGQGTKVEIK
On to B4, for which the Kd in experiment [1] is 0.54 nM; in experiment [2] it was 271 nM; in experiment [3], 37.4 nM; in experiment [4], 0.856 nM; in experiment [5] it was 33.4 nM; in experiment [6], 1.05 nM.

B5: AB-007058 (antibody, V domains shown)
VH: QMQLVESGGGVVQPGRSLRLSCTASGFTFSTYAMHWVRQSPGQGLQWVAVISYHSTNKYYEDSVRGRFTISRDNSKNTLYLQMNSLRAEDTAVYYCARDGYSTSFFDFWGQGTLVTVSS
VL: DIQMTQSPSTLSASVGDRVAITCRASQSISRWLAWYQQQPGKAPKLLMSGASVLESGVPSRFSGSGSGTEFTLTISSLQPDDFATYYCQHYNSYFVTFGQGTKVEIK
With B5, the Kd is 0.137 nM in experiment [1]; 339 nM in experiment [2]; 46.3 nM in experiment [3]; 1.14 nM in experiment [4]; 42.2 nM in experiment [5]; 1.3 nM in experiment [6].

B6: AB-007064 (antibody, V domains shown)
VH: QMQLVESGGGVVQPGRSLRLSCTASGFTFSTYAMHWVRQSPGQGLQWVAVISYHSTNKYYEDSVRGRFTISRDNSKNTLYLQMNSLRAEDTAVYYCARDGYSSSFFDFWGQGTLVTVSS
VL: DIQMTQSPSTLSASVGDRVAITCRASQSISRWLAWYQQQPGKAPKLLMTGASVLESGVPSRFSGSGSGTEFTLTISSLQPDDFATYYCQHYNSYFVTFGQGTKVEIK
For the molecule B6, the Kd in experiment [1] was determined as 0.192 nM; in experiment [2] it was 152 nM; in experiment [7] it was 36.7 nM; in experiment [3], 30.9 nM; in experiment [4], 0.434 nM; in experiment [5], 33.7 nM. Further, the Kd in experiment [6] is 0.453 nM.

B7: AB-007069 (antibody, V domains shown)
VH: QMQLVESGGGVVQPGRSLRLSCTASGFTFSTYAMHWVRQSPGQGLQWVAVISYHSTNKYYEDSVRGRFTISRDNSKNTLYLQMNSLRAEDTAVYYCARDGYSSSFFDFWGQGTLVTVSS
VL: DIQMTQSPSTLSASVGDRVAITCRASQSISRWLAWYQQQPGKAPKLLMSVASVLESGVPSRFSGSGSGTEFTLTISSLQPDDFATYYCQHYNSYFVTFGQGTKVEIK
Regarding B7, the Kd was 1.85 nM in experiment [1]; 204 nM in experiment [2]; 26.6 nM in experiment [7]; 27.5 nM in experiment [3]; 1.33 nM in experiment [4]; 28.7 nM in experiment [5]. This molecule yielded a Kd in experiment [6] of 1.43 nM.

B8: AB-007066 (antibody, V domains shown)
VH: QMQLVESGGGVVQPGRSLRLSCTASGFTFSTYAMHWVRQSPGQGLQWVAVISYHSTNKYYEDSVRGRFTISRDNSKNTLYLQMNSLRAEDTAVYYCARDGYSSSFFDFWGQGTLVTVSS
VL: DIQMTQSPSTLSASVGDRVAITCRASQSISRWLAWYQQQPGKAPKLLMSQASVLESGVPSRFSGSGSGTEFTLTISSLQPDDFATYYCQHYNSYFVTFGQGTKVEIK
Consider B8, for which the Kd in experiment [1] is 0.979 nM; in experiment [2] it was 357 nM; in experiment [3], 26.6 nM; in experiment [4], 0.315 nM; in experiment [5], 22.4 nM; in experiment [6], 3.58 nM.

B9: AB-007048 (antibody, V domains shown)
VH: QMQLVESGGGVVQPGRSLRLSCTASGFTFSTYSMHWVRQSPGQGLQWVAVISYHSTNKYYEDSVRGRFTISRDNSKNTLYLQMNSLRAEDTAVYYCARDGYSSSFFDFWGQGTLVTVSS
VL: DIQMTQSPSTLSASVGDRVAITCRASQSISRWLAWYQQQPGKAPKLLMSGASVLESGVPSRFSGSGSGTEFTLTISSLQPDDFATYYCQHYNSYFVTFGQGTKVEIK
Turning to B9, the Kd worked out at 1 nM in experiment [1]; 1550 nM in experiment [2]; 28.6 nM in experiment [3]; 1.46 nM in experiment [4]; 34.6 nM in experiment [5]; 3.33 nM in experiment [6].

B10: AB-007045 (antibody, V domains shown)
VH: QMQLVESGGGVVQPGRSLRLSCTASGFTFSTYAMHWVRQSPGQGLQWVAVISYHSTNKYYEDSVRGRFTISRDNSKNTLYLQMNSLRAEDTAVYYCARDAYSSSFFDFWGQGTLVTVSS
VL: DIQMTQSPSTLSASVGDRVAITCRASQSISRWLAWYQQQPGKAPKLLMSGASVLESGVPSRFSGSGSGTEFTLTISSLQPDDFATYYCQHYNSYFVTFGQGTKVEIK
B10: the Kd is 2.35 nM in experiment [1]; 246 nM in experiment [2]; 28.2 nM in experiment [7]; 43.6 nM in experiment [3]; 0.703 nM in experiment [4]; 43.9 nM in experiment [5]. The equilibrium dissociation constant (Kd) in experiment [6] was found to be 0.734 nM.

B11: AB-007055 (antibody, V domains shown)
VH: QMQLVESGGGVVQPGRSLRLSCTASGFTFSTYAMHWVRQSPGQGLQWVAVISYHSTNKYYEDSVRGRFTISRDNSKNTLYLQMNSLRAEDTAVYYCARDGYTSSFFDFWGQGTLVTVSS
VL: DIQMTQSPSTLSASVGDRVAITCRASQSISRWLAWYQQQPGKAPKLLMSGASVLESGVPSRFSGSGSGTEFTLTISSLQPDDFATYYCQHYNSYFVTFGQGTKVEIK
For B11, the Kd was found to be 0.403 nM in experiment [1], 1470 nM in experiment [2], 1.61 nM in experiment [4] and 3.62 nM in experiment [6].
